One experiment concerns the target p85α nSH2, 325-430 (UniProt P27986). As to the kind of experiment: fluorescence polarization titration. Conditions: reference: unphosphorylated p85β peptide; sites Y599. Background: Fluorescence polarisation rises when a labelled molecule tumbles more slowly, as on binding a larger partner.
For the next experiment, the target named is p85β nSH2, 312-425 (UniProt O08908). As to the kind of experiment: fluorescence polarization titration. Conditions: reference: unphosphorylated p85β peptide; sites Y599.
p85β nSH2, 312-425, sequence (O08908 whole entry, looked up, tested part not stated): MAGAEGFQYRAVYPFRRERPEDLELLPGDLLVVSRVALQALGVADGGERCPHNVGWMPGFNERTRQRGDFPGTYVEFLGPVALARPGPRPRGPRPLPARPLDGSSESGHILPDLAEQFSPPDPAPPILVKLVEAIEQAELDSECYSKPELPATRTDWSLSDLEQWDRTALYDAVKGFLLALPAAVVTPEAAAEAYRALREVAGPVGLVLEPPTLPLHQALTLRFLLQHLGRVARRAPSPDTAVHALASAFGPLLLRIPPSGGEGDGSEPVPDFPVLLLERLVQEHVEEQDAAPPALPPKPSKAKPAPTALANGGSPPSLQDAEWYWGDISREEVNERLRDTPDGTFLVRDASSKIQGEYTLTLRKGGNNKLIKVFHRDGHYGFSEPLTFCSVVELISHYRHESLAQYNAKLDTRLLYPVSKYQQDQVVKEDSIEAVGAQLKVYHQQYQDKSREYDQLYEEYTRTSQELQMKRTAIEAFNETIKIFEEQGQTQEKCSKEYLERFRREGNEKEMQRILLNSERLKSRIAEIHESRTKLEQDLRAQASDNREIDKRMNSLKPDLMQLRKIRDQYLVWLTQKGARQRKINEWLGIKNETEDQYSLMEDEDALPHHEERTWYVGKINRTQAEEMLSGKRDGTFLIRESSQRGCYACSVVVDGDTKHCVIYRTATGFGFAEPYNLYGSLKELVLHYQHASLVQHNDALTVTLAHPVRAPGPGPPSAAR

p85β, sequence (O08908 312-425, change not shown): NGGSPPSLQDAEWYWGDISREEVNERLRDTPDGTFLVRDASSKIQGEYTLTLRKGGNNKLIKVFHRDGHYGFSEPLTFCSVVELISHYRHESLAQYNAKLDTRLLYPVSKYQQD
p85α nSH2, 325-430, sequence (P27986 whole entry, looked up, tested part not stated): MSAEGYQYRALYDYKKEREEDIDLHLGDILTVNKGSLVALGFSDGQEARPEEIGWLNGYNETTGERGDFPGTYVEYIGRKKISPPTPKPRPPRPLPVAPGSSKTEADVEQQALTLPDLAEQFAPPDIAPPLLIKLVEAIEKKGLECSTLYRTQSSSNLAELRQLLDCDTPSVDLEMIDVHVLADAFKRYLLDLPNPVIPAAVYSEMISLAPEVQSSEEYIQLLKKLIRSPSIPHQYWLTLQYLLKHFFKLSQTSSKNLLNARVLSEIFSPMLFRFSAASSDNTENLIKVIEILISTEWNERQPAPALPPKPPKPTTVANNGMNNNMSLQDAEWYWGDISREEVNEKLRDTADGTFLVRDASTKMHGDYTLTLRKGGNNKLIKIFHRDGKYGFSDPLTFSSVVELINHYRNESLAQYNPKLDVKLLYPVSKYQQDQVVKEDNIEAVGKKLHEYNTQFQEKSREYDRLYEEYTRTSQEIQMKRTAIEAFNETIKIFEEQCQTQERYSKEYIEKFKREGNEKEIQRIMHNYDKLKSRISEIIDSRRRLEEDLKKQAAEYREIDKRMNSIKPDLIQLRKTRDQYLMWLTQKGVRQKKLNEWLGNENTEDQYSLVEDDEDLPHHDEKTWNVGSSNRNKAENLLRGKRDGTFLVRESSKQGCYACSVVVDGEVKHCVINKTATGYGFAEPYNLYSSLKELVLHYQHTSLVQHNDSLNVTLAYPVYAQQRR

In the case of “p85β (from UniProt O08908) phospho-p85β peptide”, the “binding against the reference” value in the experiment with p85α nSH2, 325-430 is “gained”; with p85β nSH2, 312-425, “gained”.

(Values after paper doi:10.1101/791277.)
